Data set [1] has as its target c-JUN, recombinant;c-FOS, recombinant (Homo sapiens;Homo sapiens, UniProt P05412;P01100 1-331;1-380, |). Nature of the data set: EMSA; 300 ng AP1; EMSA per LI-COR kit protocol (829-07910), 100 nM IR700 probe, 4-12% TBE gel in 0.5x TBE; binding buffer, pH and temperature not stated. As to conditions: protein: commercial;commercial; tags: ;; copies: 1;1; label: IRDye 700.

For data set [2], the target named is IKZF1 (Ikaros), recombinant;c-JUN, recombinant;c-FOS, recombinant (Homo sapiens;Homo sapiens;Homo sapiens, UniProt Q13422;P05412;P01100 1-519;1-331;1-380, ||). Nature of the data set: EMSA; 300 ng AP1 + 1 ug IKZF1; stronger than AP1 alone; EMSA per LI-COR kit protocol (829-07910), 100 nM IR700 probe, 4-12% TBE gel in 0.5x TBE; binding buffer, pH and temperature not stated. The note with it: protein: commercial;commercial;commercial; tags: ;;; label: IRDye 700.
Chain of IKZF1 (Ikaros), recombinant;c-JUN, recombinant;c-FOS, recombinant (Q13422 whole entry, chain 1 of 3): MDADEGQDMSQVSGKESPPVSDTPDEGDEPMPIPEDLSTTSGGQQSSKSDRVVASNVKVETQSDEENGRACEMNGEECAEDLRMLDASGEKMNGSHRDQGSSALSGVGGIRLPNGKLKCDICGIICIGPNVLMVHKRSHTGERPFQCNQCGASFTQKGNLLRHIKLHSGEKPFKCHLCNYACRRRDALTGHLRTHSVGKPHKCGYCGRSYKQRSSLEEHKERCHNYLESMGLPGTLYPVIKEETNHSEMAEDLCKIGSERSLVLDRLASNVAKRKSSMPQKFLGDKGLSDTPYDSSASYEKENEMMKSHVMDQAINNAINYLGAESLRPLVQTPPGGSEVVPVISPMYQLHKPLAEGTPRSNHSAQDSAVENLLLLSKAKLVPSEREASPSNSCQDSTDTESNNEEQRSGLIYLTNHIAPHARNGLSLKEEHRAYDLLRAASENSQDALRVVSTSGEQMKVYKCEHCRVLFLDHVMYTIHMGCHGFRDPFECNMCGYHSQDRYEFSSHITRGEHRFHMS
Chain of IKZF1 (Ikaros), recombinant;c-JUN, recombinant;c-FOS, recombinant (P05412 whole entry, chain 2 of 3): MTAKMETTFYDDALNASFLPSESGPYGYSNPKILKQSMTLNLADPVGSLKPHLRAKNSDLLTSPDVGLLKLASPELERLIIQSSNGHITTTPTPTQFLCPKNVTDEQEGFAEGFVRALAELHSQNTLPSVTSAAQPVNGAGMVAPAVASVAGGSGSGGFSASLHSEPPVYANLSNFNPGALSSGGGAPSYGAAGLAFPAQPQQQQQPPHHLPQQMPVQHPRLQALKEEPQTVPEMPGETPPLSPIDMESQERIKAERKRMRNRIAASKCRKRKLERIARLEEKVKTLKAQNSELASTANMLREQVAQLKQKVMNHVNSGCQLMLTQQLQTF
Chain of IKZF1 (Ikaros), recombinant;c-JUN, recombinant;c-FOS, recombinant (P01100 whole entry, chain 3 of 3): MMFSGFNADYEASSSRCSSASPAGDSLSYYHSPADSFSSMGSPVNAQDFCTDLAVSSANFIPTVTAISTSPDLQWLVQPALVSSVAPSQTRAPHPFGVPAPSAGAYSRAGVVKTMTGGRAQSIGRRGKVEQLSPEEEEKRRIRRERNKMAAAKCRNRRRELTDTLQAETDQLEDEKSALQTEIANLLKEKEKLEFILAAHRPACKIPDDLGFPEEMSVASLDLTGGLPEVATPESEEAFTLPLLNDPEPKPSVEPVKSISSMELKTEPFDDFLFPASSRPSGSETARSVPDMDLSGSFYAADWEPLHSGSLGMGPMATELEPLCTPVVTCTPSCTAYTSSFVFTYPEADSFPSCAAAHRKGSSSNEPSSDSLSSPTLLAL

Chain of c-JUN, recombinant;c-FOS, recombinant (P05412 whole entry, chain 1 of 2): as the sequence (P05412 whole entry, chain 2 of 3) above
Chain of c-JUN, recombinant;c-FOS, recombinant (P01100 whole entry, chain 2 of 2): as the sequence (P01100 whole entry, chain 3 of 3) above

B1: IL10 CNS9 WT probe (dsDNA)
DNA 1: GAGGTTGCAGTTTCGTTGTGAGTCAGGCCTGCTGA
DNA 2: TCAGCAGGCCTGACTCACAACGAAACTGCAACCTC
In the case of B1, the binding result in data set [1] and in data set [2] was “binds” each time.

The values are drawn from paper PMC11717359, “A new pipeline SPICE identifies novel JUN-IKZF1 composite elements”.
